The results in this text go back to article PMC4621513, “APOBEC3G Interacts with ssDNA by Two Modes: AFM Studies”.

For this series, the target named is APOBEC3G (A3G) (UniProt Q9HC16 1-384). Kind of series: AFM force spectroscopy; two binding modes; stronger and more stable complexes than with nonspecific ssDNA; Force spectroscopy probing buffer: 50 mM HEPES, 100 mM NaCl, 5 mM MgCl2, 1 mM DTT (pH and temperature not given); imaging buffer not in the material. Conditions: protein: recombinant; tags: mycHis (C-terminal).
Chain of APOBEC3G (A3G) (Q9HC16 whole entry): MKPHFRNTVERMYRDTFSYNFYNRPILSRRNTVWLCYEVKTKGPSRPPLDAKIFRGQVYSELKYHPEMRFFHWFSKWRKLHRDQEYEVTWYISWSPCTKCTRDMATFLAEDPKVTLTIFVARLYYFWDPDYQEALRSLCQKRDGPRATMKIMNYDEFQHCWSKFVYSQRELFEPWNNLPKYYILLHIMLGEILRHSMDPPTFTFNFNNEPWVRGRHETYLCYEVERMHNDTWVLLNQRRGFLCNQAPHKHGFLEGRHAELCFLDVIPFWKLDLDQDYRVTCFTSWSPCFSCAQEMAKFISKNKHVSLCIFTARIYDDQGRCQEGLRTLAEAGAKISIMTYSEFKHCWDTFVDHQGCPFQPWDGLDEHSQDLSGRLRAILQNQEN

B1: 69 nt deaminase specific ssDNA (ssDNA)
DNA: TACGTGTAGGAATTATATTAAAGAGAAAGTGAAACCCAAAGAATGAAAACCCAAATGTTAGAATTGTTA
modifications: 5' thiol
In the case of B1, the binding result is listed as “binds”.
